Measured values as given in the supplement of paper PMC12764529.
± gives the half width of the 95% confidence interval.

assay: folding stability dG unfold from trypsin proteolysis; higher = more stable
Outline: (§1)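 Digests were run with trypsin and chymotrypsin at 11 concentrations in threefold dilutions, plus a no-protease condition, on designed mini-proteins in a PA-tagged cDNA display construct. The mini-proteins were under 80 residues, had no cysteine, and were kept only when AlphaFold2 dimer inter-PAE was above 15. After sequencing, Bayesian fitting of the counts gave K50, from which unfolding free energy was derived against a sequence-predicted unfolded-state K50 and a shared folded-state K50, per protease or combined.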

Sequence	folding stability dG unfold [kcal/mol]
SAGGMKIKAEDIVSVEVTYNEETNELTVKVTVRINGKEVTLTFPEGMSEEELKRLLEELIKKGELEIESAGG [r13_225_TrROS_Hall]	2.19 ± 0.12
SAGGSASIEELLKEIIDNLKPGEKYKITIEVDGEEKTFTFTNKNGEKIEIVVKDGKIVSIKIEKLPSAGGSA [r15_175_TrROS_Hall]	2.5 ± 0.4
SAGGGVEITREPDPAGGRRVRFTDPSGRTFEVEITPDSLRITRPDGTTRSAAVPPDADLRLPYSELASAGGS [r16_203_JUSTAS]	-0.625 ± 0.12
SAGGMPVGVARVRTEAGDKVLEFTVEVPADVGAVEIRVKLKPDPLTGEPVVEEILEVRTYRAPPDVELSAGG [r13_568_TrMRF]	0.84 ± 0.047
SAGYFIMVKFEFPDGGPQEFMIWIPPDENPEKLTKEEAKEVAKSIANSNQDQGGFEVKDVEIMPPDDMSAGG [r19_27_TrROS]	0.611 ± 0.1
SAGGSAGGSAGKVKLVEENGKLKLVVVDEKTKKVTVIEVPLENLDEILKLLPPGAKVYLLSAGGSAGGSAGG [r11_1006_TrROS_Hall]	1.05 ± 0.053
SAGMSLEELAKELAKKLNIEKVEIKYDKETNKVTIKIYFKKNKKKITITIKKENMTPEEIKKLLEEILKSAG [r5_896_TrROS_Hall]	2.9 ± 0.12
SPAEINIEFDPEEGRLRIKVKLEWPGGDPEPIATHEVPIGNNRYITYPIYKHPDGPWRIEDIDIMPPDELSA [r9_780_TrROS]	0.283 ± 0.14
SMKPYVYTHPEGITIPMFVLPDGTIKIEVTAFDPNNPVPLGKATATMDPATGTLNLTLPNGTSLSYTIPASA [r9_56_JUSTAS]	2.45 ± 0.065
SAGGSAGGSAGGKKYEITRILSIEETEDGRIRILIETKTGIIEFDDISEIPPEIRELLGSAGGSAGGSAGGS [r10_748_TrMRF]	2.82 ± 0.075
SAGGSAGGSAGTRTITIFIPVPPGKMTPEDALDFIKPFFPDVKIEVEPVNNYYAIEITVKSAGGSAGGSAGG [r11_7_TrROS]	1.17 ± 0.056
SAGGPVKLVKVQFINPETGEPVEISGPASKVLEIAEKLGLNVTSVTVIENPNTILVVVPGPNQLVVVTDSAG [r5_521_TrMRF]	1.82 ± 0.055
SAGGSAKKVEKVTVTVLIEKDGKLYLVRVTVTRPKVKYDKKTGKFTVTLKPGEKVEIKVEVVELPESAGGSA [r15_1040_TrROS_Hall]	2.65 ± 0.21
SAGGSAGGSAMTPVTTTQTISFPGSEEEARAEAERIREELEAKGLTVSFEFLPGGTLKITVASAGGSAGGSA [r18_262_JUSTAS]	3.18 ± 0.064
SAGGSAGGSAGGPNGKPLNLKIEIPKIEKIQRVNGRPVIRIPVRMTFPGKEVKMTIWIPISAGGSAGGSAGG [r7_739_TrROS]	2.13 ± 0.086
SAGGSAGGSGSMKEIEIEIPKDDPQLIEKIKEELKQKNSKKVEVKEIKKTPEGKYKVKIIIEESAGGSAGGS [r12_91_JUSTAS]	1.03 ± 0.1
SAGKPNIVVHPEYEQEKDPGDPGQPRIREMRVRVYLPNGRPITFRYRSPEDAVDRLLKRIQENPDLLKSAGG [r19_123_TrROS]	1.79 ± 0.12
SAGGSAGGSASNPKIISVENLGNYTVVLAEDPEDGSLVLVVINPDNNSALVFKDNKPVAVFSAGGSAGGSAG [r3_297_TrMRF]	1.33 ± 0.025
SAGGSMKFSATVEYDPANNIYTVTVPITRKDTGEVIPVSVPVPGSDLTTAEQLAEEIAEKLEKEGLSAGGSA [r2_221_JUSTAS]	0.627 ± 0.092
SAPKVISATVTYNPATGKVTVTVTLEDADGPVTVTYTFDGDGNVPVTVYDTRTTKPLGTITVPADQLNLSAG [r14_608_TrMRF]	1.06 ± 0.08
SAGGSAGGSMPVVEVEITVSYTVPETGEILTKPETITMTPEEAEKIKEELEKKGYKVEVKYNPKSAGGSAGG [r6_97_JUSTAS]	0.824 ± 0.043

assay: folding stability dG unfold (combined trypsin and chymotrypsin); higher = more stable
Outline: as §1

Sequence	folding stability dG unfold [kcal/mol]
SAGGSAGGSAGGEIKPGETITNLKVKIRNKKTGKTITVTLKPGETAEDLAKKLGVEIEPSAGGSAGGSAGGS [r10_202_TrROS_Hall]	0.87 ± 0.1
SAGGSAGGSAGEKPVYYARVTEVKYNPENKELEIKLENGETITLSLEELKSLKPGDIIRISAGGSAGGSAGG [r11_124_TrROS_Hall]	1.97 ± 0.065
SAGMTVTLPGDKSYTVTVKYTLYDADGKKLGEKTYTKTVTVAPNSTVTINIPNTYPNTVVTEVTVTPESAGG [r19_295_JUSTAS]	4.32 ± 0.13
SAGMTEEELKKLKEKFPNLKIEPVKTITIKVEPNASVEEIAKKLKELLNIDKVEIEVNEETGEITIRIYSAG [r5_694_TrROS_Hall]	3.69 ± 0.23
SAGGSAGGSAGRVEKIVSNLKPLGYEVLSVEETEDYVLAVVYDPFTDEPRVFRFPKDSPFSAGGSAGGSAGG [r11_428_TrMRF]	1.41 ± 0.11
SAWIPIDSPEEAKDIAKEIADNYGLEDTKVEPMPDNYVVVKLEFEMPNENGQKRKRNITIYYDPDGKFWSAG [r14_420_TrROS]	1.1 ± 0.099
SAGGSAGGSKPPPTVEIEITLEDGTVLRIRVTPDRIEIENLETGKRFTFPPGATIEIEVRKLPSAGGSAGGS [r12_227_TrROS_Hall]	4.19 ± 0.56
SAGADSVTYDPETNLVVVYRRVGDDVEVLVLEPVPLPVVVVVPVEDAVTRNPELRPLLEQNPDFYLVFPSAG [r5_957_TrMRF]	2.13 ± 0.051
SAGGSAGGSAGLFPGPENIPKVSITPFEVENPLDDYTVTLYRVDFPDLGLSLPAALVSKRSAGGSAGGSAGG [r17_31_TrMRF]	1.36 ± 0.16
SAGKIKIPPGQEIWIIVNVEWQPDPDNGEPRYTVTVMKIKIKADPNGGLKIESIETKIVPAEDLKDNGLSAG [r5_340_TrROS]	3.06 ± 0.14
SAGGSAGGSAPRPIEIMFPWDSPEDAHEEAEEIARTFAQEDNIKVKVEYYPREGWVKVKIRVSAGGSAGGSA [r18_368_TrROS]	1.38 ± 0.21
SMEVVEEFTLPNGTRITLTKNEDGTVTVTLETTVKNPETGKTTTKTVTITVKLEPGEEYSLEELLATLLSSA [r9_614_TrROS_Hall]	3.7 ± 0.078
SPDVKILDIERHPDDGSISIKLKFPDGWPVTLHYNPDGSHTIHNPGNGAPIQIKYDGNQLKIELPDNLKFSA [r9_233_TrROS]	0.729 ± 0.083
MALPERLRELTPPVPPELALEAALKRAEELGLEEVREVRVLSVTPDGYIEVEIELPEGGSVRIRIPLEDLFS [r1_435_TrMRF]	1.15 ± 0.12
SKYVQVRFPNYTIMVKKRKSPNGKPEVEVMLYNPPNGKMIPVEVKSPEDAEEAVKDAIRAMFPDEELRDLSA [r9_749_TrROS]	0.687 ± 0.17
SAGGSAGGSVITLPNGVKLVTVKVSRPELDETETVTVPLEGMTLEEIKERLKKEGYKEVVFLESAGGSAGGS [r12_792_JUSTAS]	1.26 ± 0.077
SAEEPSLEELLAAIEEEAEARAREFLERHPDVPPGAVLKVPVTLTYPLRLGDVEYPVTFEAEVDVVVPASAG [r14_486_TrMRF]	1.95 ± 0.1
SAGGSAGGSEEEVEIVDVEIEEKDGKLVIRAKIRNKETGELYEVTLVFDKETGELHLEVRKLPSAGGSAGGS [r12_14_TrROS_Hall]	3.95 ± 0.15
SAGSPSMVVTVRLTVTTTDPVTGTTTTTTLDIPVSPASLSTPPAQVAAALTAAAPATTIDVTVDSVLLSAGG [r19_189_JUSTAS]	1.51 ± 0.037
SAGGSAGGSADDGDPNKQEPKPEVKVRPIEIRMSFAYYPPNGEPWMFSIEIRIWVYDGGLVSAGGSAGGSAG [r3_380_TrROS]	5.34 ± 0.16
SAGGSAGGSAQWVIRIKMPNGSTRELRIPGMTPEKAREIAKELADQNNIKDVDIYPPGQKISAGGSAGGSAG [r3_160_TrROS]	0.727 ± 0.1

Sequence	folding stability dG unfold [kcal/mol]
SAGGMKIKAEDIVSVEVTYNEETNELTVKVTVRINGKEVTLTFPEGMSEEELKRLLEELIKKGELEIESAGG [r13_225_TrROS_Hall]	2.78 ± 0.11
SAGGSASIEELLKEIIDNLKPGEKYKITIEVDGEEKTFTFTNKNGEKIEIVVKDGKIVSIKIEKLPSAGGSA [r15_175_TrROS_Hall]	3.97 ± 0.3
SAGGGVEITREPDPAGGRRVRFTDPSGRTFEVEITPDSLRITRPDGTTRSAAVPPDADLRLPYSELASAGGS [r16_203_JUSTAS]	0.134 ± 0.057
SAGGMPVGVARVRTEAGDKVLEFTVEVPADVGAVEIRVKLKPDPLTGEPVVEEILEVRTYRAPPDVELSAGG [r13_568_TrMRF]	0.887 ± 0.055
SAGYFIMVKFEFPDGGPQEFMIWIPPDENPEKLTKEEAKEVAKSIANSNQDQGGFEVKDVEIMPPDDMSAGG [r19_27_TrROS]	1.58 ± 0.15
SAGGSAGGSAGKVKLVEENGKLKLVVVDEKTKKVTVIEVPLENLDEILKLLPPGAKVYLLSAGGSAGGSAGG [r11_1006_TrROS_Hall]	2.12 ± 0.17
SAGMSLEELAKELAKKLNIEKVEIKYDKETNKVTIKIYFKKNKKKITITIKKENMTPEEIKKLLEEILKSAG [r5_896_TrROS_Hall]	4.41 ± 0.19
SPAEINIEFDPEEGRLRIKVKLEWPGGDPEPIATHEVPIGNNRYITYPIYKHPDGPWRIEDIDIMPPDELSA [r9_780_TrROS]	0.727 ± 0.35
SMKPYVYTHPEGITIPMFVLPDGTIKIEVTAFDPNNPVPLGKATATMDPATGTLNLTLPNGTSLSYTIPASA [r9_56_JUSTAS]	2.5 ± 0.16
SAGGSAGGSAGGKKYEITRILSIEETEDGRIRILIETKTGIIEFDDISEIPPEIRELLGSAGGSAGGSAGGS [r10_748_TrMRF]	2.73 ± 0.055
SAGGSAGGSAGTRTITIFIPVPPGKMTPEDALDFIKPFFPDVKIEVEPVNNYYAIEITVKSAGGSAGGSAGG [r11_7_TrROS]	1.04 ± 0.15
SAGGPVKLVKVQFINPETGEPVEISGPASKVLEIAEKLGLNVTSVTVIENPNTILVVVPGPNQLVVVTDSAG [r5_521_TrMRF]	1.69 ± 0.11
SAGGSAKKVEKVTVTVLIEKDGKLYLVRVTVTRPKVKYDKKTGKFTVTLKPGEKVEIKVEVVELPESAGGSA [r15_1040_TrROS_Hall]	3.62 ± 0.24
SAGGSAGGSAMTPVTTTQTISFPGSEEEARAEAERIREELEAKGLTVSFEFLPGGTLKITVASAGGSAGGSA [r18_262_JUSTAS]	2.74 ± 0.038
SAGGSAGGSAGGPNGKPLNLKIEIPKIEKIQRVNGRPVIRIPVRMTFPGKEVKMTIWIPISAGGSAGGSAGG [r7_739_TrROS]	2.3 ± 0.095
SAGGSAGGSGSMKEIEIEIPKDDPQLIEKIKEELKQKNSKKVEVKEIKKTPEGKYKVKIIIEESAGGSAGGS [r12_91_JUSTAS]	0.879 ± 0.17
SAGKPNIVVHPEYEQEKDPGDPGQPRIREMRVRVYLPNGRPITFRYRSPEDAVDRLLKRIQENPDLLKSAGG [r19_123_TrROS]	2.07 ± 0.19
SAGGSAGGSASNPKIISVENLGNYTVVLAEDPEDGSLVLVVINPDNNSALVFKDNKPVAVFSAGGSAGGSAG [r3_297_TrMRF]	1.45 ± 0.13
SAGGSMKFSATVEYDPANNIYTVTVPITRKDTGEVIPVSVPVPGSDLTTAEQLAEEIAEKLEKEGLSAGGSA [r2_221_JUSTAS]	0.621 ± 0.19
SAPKVISATVTYNPATGKVTVTVTLEDADGPVTVTYTFDGDGNVPVTVYDTRTTKPLGTITVPADQLNLSAG [r14_608_TrMRF]	1.14 ± 0.18
SAGGSAGGSMPVVEVEITVSYTVPETGEILTKPETITMTPEEAEKIKEELEKKGYKVEVKYNPKSAGGSAGG [r6_97_JUSTAS]	1.15 ± 0.1
